This is an account of results in patent EP4714970A1 (Akeso Biopharma Co., Ltd., dated 2026).

Numbering of substitutions follows the chain as printed. Numbers in names are those of the source. Where two headings read alike, the source gives them in different places.

Assay [1] addresses T1, CD73 on U87-MG cell membrane surface (UniProt P21589 27-549, limits assumed).
T1 sequence (looked up): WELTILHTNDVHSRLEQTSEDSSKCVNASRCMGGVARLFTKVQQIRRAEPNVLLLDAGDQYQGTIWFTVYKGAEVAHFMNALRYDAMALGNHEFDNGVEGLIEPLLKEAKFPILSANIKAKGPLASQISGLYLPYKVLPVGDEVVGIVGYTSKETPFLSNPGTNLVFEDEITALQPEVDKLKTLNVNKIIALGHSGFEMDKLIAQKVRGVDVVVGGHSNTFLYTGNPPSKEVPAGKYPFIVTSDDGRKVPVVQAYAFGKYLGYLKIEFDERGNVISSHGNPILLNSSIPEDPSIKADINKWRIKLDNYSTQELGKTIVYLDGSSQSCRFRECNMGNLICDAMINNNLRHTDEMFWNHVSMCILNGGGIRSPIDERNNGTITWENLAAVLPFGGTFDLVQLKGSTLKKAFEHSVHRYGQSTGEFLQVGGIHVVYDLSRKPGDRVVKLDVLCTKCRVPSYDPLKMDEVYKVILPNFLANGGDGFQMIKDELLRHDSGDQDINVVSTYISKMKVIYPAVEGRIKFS
Nature of the assay: cell-based or functional assay.

The target in assay [2] is T2, hNT5E(1-552)-His (human, UniProt P21589 27-552).
T2 construct: also called NT5E-His; not shown: His tag
T2 sequence (looked up): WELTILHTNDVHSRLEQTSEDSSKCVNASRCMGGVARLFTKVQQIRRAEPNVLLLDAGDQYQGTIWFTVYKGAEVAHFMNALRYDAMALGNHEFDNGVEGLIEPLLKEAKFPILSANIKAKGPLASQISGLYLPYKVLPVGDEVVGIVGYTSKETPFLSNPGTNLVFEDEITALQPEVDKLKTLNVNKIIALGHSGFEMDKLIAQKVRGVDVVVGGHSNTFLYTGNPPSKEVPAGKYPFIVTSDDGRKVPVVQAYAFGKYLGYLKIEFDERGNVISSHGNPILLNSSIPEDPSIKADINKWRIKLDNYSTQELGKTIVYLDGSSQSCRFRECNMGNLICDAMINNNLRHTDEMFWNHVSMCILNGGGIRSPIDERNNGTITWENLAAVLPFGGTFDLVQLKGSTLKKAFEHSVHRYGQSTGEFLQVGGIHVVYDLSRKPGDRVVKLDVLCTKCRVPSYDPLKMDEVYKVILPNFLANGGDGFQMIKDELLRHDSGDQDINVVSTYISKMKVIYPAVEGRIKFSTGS
In words: ELISA, NT5E-His coated 1 ug/mL. A general note: An ELISA detects its analyte on a solid surface through an enzyme-linked reagent.

Assay [3] concerns the target T1, CD73 on U87-MG cell membrane surface. In words: flow cytometry on U87-MG cells. (In flow cytometry, cells or beads pass a laser one at a time.)
In assay [4] the target is T2, hNT5E(1-552)-His. Nature of the assay: BLI (Fortebio), antigen on HIS1K sensor, antibody in solution, 37 C, 1:1 fit. A general note: Biolayer interferometry detects binding as a change in optical thickness at a sensor tip.
In assay [5] the target is T2, hNT5E(1-552)-His. Nature of the assay: ELISA, NT5E-His coated 1 ug/mL. The source holds these as a separate data set.
Assay [6] addresses T2, hNT5E(1-552)-His. Nature of the assay: ELISA, NT5E-His coated 1 ug/mL. This is another data set of the same source.
The target in assay [7] is T3, human LAG3 on cell surface (293T-LAG3 cells; Jurkat-NFAT-PD1-LAG3 cells) (human, UniProt P18627 23-525).
T3 construct: whole, on cells; also called huLAG3FL
T3 sequence (looked up): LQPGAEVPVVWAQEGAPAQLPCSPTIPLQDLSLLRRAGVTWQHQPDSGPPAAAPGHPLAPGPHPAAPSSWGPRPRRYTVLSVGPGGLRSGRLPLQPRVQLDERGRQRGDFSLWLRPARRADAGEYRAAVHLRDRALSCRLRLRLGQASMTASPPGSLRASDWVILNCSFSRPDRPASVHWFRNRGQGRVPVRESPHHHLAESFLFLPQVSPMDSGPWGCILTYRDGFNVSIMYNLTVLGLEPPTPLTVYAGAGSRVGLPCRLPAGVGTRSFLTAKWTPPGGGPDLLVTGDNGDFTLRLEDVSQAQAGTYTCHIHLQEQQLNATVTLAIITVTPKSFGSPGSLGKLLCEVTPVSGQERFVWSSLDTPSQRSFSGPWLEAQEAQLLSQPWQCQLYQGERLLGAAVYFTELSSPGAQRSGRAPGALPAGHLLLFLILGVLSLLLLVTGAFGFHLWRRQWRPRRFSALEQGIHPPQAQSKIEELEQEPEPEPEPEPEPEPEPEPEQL
In words: flow cytometry on 293T-LAG3 cells.

For assay [8], the target named is T3, human LAG3 on cell surface (293T-LAG3 …). In words: flow cytometry on 293T-LAG3 cells. This is another data set of the same source.
Assay [9] has as its target T4, human LAG3-mG1Fc (human; mouse, UniProt P18627 23-450, limits assumed).
T4 construct: Made by Akeso; also called huLAG3-mG1Fc; HuLAG3-mG1Fc; not shown: mouse IgG1 Fc (mG1Fc); limits not readable
T4 sequence (looked up): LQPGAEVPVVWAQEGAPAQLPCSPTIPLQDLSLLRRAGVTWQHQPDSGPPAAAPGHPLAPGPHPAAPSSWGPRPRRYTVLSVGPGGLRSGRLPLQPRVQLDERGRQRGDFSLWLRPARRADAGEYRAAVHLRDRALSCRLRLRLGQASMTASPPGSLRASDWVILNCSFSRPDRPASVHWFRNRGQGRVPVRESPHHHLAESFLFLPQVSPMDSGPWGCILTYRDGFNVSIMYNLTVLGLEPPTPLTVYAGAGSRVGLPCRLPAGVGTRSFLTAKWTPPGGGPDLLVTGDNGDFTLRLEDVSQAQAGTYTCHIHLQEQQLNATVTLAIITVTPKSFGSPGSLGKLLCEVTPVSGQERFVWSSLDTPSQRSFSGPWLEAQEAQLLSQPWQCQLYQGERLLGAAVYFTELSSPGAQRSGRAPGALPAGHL
In words: competitive flow cytometry, 3 nM LAG3-mG1Fc on Raji cells (competitor MHC II).

For assay [10], the target named is T4, human LAG3-mG1Fc. Nature of the assay: ELISA, LAG3-mG1Fc coated 2 ug/mL.
The target of assay [11] is T4, human LAG3-mG1Fc. Nature of the assay: BLI (Fortebio), antigen on AMC sensor, antibody in solution, 30 C, 1:1 fit.
Assay [12] deals with T4, human LAG3-mG1Fc. In words: competitive flow cytometry, 3 nM LAG3-mG1Fc on Raji cells (competitor MHC II). The source holds these as a separate data set.

B1: MEDI9447 (antibody, V domains shown)
VH: EVQLLESGGGLVQPGGSLRLSCAASGFTFSSYAYSWVRQAPGKGLEWVSAISGSGGRTYYADSVKGRFTISRDNSKNTLYLQMNSLRAEDTAVYYCARLGYGRVDEWGRGTLVTVSS
VL: QSVLTQPPSASGTPGQRVTISCSGSLSNIGRNPVNWYQQLPGTAPKLLIYLDNLRLSGVPDRFSGSKSGTSASLAISGLQSEDEADYYCATWDDSHPGWTFGGGTKLTVL
For B1, in [1], the “EC50 (nM), inhibition of CD73 enzyme activity on U87-MG cells” value is 0.152 nM and the “Maximum inhibition rate (%) of CD73 enzyme activity on U87-MG cells” value is 58.3%.

B2: 19F3H2L3(hG1DM) (antibody, human IgG1, kappa, L234A L235A, V domains shown)
VH: QVQLVQSGAEVVKPGASVKVSCKASGYSFTGYTMNWVRQAPGQNLEWIGLINPYNAGTSYNQKFQGKVTLTVDKSTSTAYMELSSLRSEDTAVYYCARSEYRYGGDYFDYWGQGTTLTVSS
VL: DIVMTQSPSSLAVSVGERVTISCKSSQSLLNSSNQKNYLAWYQQKPGQAPKLLIYFASTRESGVPDRFSGSGSGTDFTLTISSLQAEDVAVYYCQQHYDTPYTFGGGTKLEIKR
notes: Humanized anti-CD73 IgG1 with L234A/L235A
For B2, the EC50 (as a rule, the concentration giving half of the maximal effect) in the assay with hNT5E(1-552)-His [2] was 11 pM; in assay [3] it was 6060 pM; with hNT5E(1-552)-His [5], 15 pM; with hNT5E(1-552)-His [6] it was 11 pM. The Kd (in general, a measure of binding affinity in units of concentration) with hNT5E(1-552)-His [4] amounted to 505 pM. Besides, in the assay with hNT5E(1-552)-His [4], the “Maximum signal height of analyte (nm)” value was found to be 0.168 nm. For the same molecule, the “S E (kdis)” value with hNT5E(1-552)-His [4] was 3.54e-06 s⁻¹.

B3: CPI-006 (antibody, V domains shown)
VH: QVQLVQSGAEVEKPGASVKVSCKASGYTFTSYWITWVRQAPGQGLEWMGDIYPGSGNTNYNEKFKTRVTITADKSTSTAYMELSSLRSEDTAVYYCAKEGGLTTEDYALDYWGQGTLVTVSS
VL: EIVLTQSPATLSLSPGERATLSCRASKNVSTSGYSYMHWYQQKPGQAPRLLIYLASNLESGIPPRFSGSGYGTDFTLTINNIESEDAAYYFCQHSRELPFTFGQGTKVEIKR
The molecule B3 gave an EC50 in [3] of 8470 pM.

B4: H9L8(hG4WT) (antibody, human IgG4 S228P, kappa, V domains shown)
VH: QVQLQQWGAGLLKPSETLSLTCAVYGGSISDYYWNWIRQPPGKGLEWIGEINYRGTTNSNPSLKSRVTLSLDTSKNQFSLKLRSVTAADTAVYYCAFGYSDYEYDWFDPWGQGTLVTVSS
VL: EIVLTQSPATLSLSPGERATLSCRASQTISSYLAWYQQKPGQAPRLLIYDASNRATGIPARFSGSGSGTDFTLTISSLEPEDFAVYYCQQRSNWPITFGQGTNLEIKR
notes: Humanized anti-LAG3 IgG4 (wild type), kappa
B4 returned an EC50 in [7] of 4860 pM. The EC50 in assay [8] was 501 pM. The same molecule came in with an EC50 in the assay with human LAG3-mG1Fc [9] of 1440 pM. Also, the EC50 with human LAG3-mG1Fc [10] is 123 pM. For the same molecule, in the assay with human LAG3-mG1Fc [11], binding was put at a Kd of 300 pM, the “Maximum signal height of analyte (nm)” value came out at 0.878 nm, the “S E (kdis)” value amounted to 2.94e-06 s⁻¹ and the “S E (kon)” value was 2330 M⁻¹ s⁻¹. Besides, in the assay with human LAG3-mG1Fc [11], the koff (in general, the rate constant with which the complex falls apart) is 0.000121 s⁻¹ and the kon (usually the rate constant with which the complex forms) was determined as 405000 M⁻¹ s⁻¹. In addition, a half-maximal response with human LAG3-mG1Fc [12] (EC50) required 1460 pM.

B5: H9L9(hG4WT) (antibody, human IgG4 S228P, kappa, V domains shown)
VH: B4 VH
VL: B4 VL with A51G, I96L
notes: as for B4
Take B5: the values for the EC50 (in assay [7]; in the assay with human LAG3-mG1Fc [10]; with human LAG3-mG1Fc [12]) were 4520 pM, 129 pM and 1480 pM, respectively.

B6: H9L10(hG4WT) (antibody, human IgG4 S228P, kappa, V domains shown)
VH: B4 VH
VL: B4 VL with T28S, A51G
notes: Humanized anti-LAG3 IgG4 (wild type), kappa; also called HIL10(hG4WT)
In the case of B6, the EC50 in assay [7] was found to be 3920 pM; with human LAG3-mG1Fc [10], 140 pM; in the assay with human LAG3-mG1Fc [12] it was 1440 pM.
